T1: cynomolgus monkey FcγRIIa1 extracellular domain with C-terminal His-tag (cynomolgus monkey)
T1 construct: Expressed in FreeStyle 293 cells and purified; also called cyno FcγRIIa1; cynoFcgRIIa1; not shown: C-terminal His-tag
T1 chain: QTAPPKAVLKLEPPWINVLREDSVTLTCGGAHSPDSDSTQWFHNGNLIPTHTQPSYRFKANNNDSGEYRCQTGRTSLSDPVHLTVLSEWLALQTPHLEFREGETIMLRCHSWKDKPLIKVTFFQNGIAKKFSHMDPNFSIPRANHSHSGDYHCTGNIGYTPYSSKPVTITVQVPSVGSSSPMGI

T2: cynomolgus monkey FcγRIIa2 extracellular domain with C-terminal His-tag (cynomolgus monkey)
T2 construct: Expressed in FreeStyle 293 cells and purified; also called cyno FcγRIIa2; cynoFcgRIIa2; not shown: C-terminal His-tag
T2 chain: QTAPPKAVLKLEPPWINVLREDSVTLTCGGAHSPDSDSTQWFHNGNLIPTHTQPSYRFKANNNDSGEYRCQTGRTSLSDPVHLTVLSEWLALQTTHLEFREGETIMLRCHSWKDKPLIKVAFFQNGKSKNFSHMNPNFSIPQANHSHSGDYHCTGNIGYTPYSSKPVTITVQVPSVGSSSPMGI

T3: cynomolgus monkey FcγRIIa3 extracellular domain with C-terminal His-tag (cynomolgus monkey)
T3 construct: Expressed in FreeStyle 293 cells and purified; also called cyno FcγRIIa3; cynoFcgRIIa3; not shown: C-terminal His-tag
T3 chain: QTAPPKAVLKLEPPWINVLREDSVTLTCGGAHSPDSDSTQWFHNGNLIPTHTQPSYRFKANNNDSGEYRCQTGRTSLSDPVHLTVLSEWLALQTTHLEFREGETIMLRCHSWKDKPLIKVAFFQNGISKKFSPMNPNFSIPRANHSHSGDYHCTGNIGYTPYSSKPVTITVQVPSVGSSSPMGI

T4: cynomolgus monkey FcγRIIb extracellular domain with C-terminal His-tag (cynomolgus monkey)
T4 construct: Expressed in FreeStyle 293 cells and purified; also called cyno FcγRIIb; cynoFcγRIIb; not shown: C-terminal His-tag
T4 chain: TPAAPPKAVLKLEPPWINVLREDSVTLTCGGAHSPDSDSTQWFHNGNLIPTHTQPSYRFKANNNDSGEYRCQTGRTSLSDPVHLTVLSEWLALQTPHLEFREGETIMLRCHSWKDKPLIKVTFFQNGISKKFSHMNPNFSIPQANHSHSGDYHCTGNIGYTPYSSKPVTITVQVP

T5: cynomolgus monkey FcγRIIIaS extracellular domain with C-terminal His-tag (cynomolgus monkey, UniProt Q8SPW2 21-206 at identity 1.00))
T5 construct: Expressed in FreeStyle 293 cells and purified; also called cyno FcγRIIIaS; cynoFcγRIIIaS; not shown: C-terminal His-tag
T5 chain: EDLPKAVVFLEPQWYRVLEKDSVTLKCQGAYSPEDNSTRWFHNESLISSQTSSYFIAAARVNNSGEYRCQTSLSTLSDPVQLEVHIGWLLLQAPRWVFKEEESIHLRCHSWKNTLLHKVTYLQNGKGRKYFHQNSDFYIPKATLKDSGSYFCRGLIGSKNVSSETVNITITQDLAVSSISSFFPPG

T6: human FcγRIIaH extracellular domain with C-terminal His-tag (human, UniProt P12318 34-217)
T6 construct: Expressed in FreeStyle 293 cells and purified; also called human FcγRIIa (type H); FcgRIIaH; not shown: C-terminal His-tag
T6 sequence: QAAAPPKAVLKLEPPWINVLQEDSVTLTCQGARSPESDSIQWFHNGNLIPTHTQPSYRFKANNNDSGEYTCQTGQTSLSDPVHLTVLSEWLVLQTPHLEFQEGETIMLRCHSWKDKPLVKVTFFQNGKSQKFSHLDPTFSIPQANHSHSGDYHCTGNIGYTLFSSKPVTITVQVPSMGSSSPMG

T7: human FcγRIIaR extracellular domain with C-terminal His-tag (human, UniProt P12318 34-217)
T7 construct: Expressed in FreeStyle 293 cells and purified; also called human FcγRIIa (type R); FcgRIIaR; not shown: C-terminal His-tag
T7 chain: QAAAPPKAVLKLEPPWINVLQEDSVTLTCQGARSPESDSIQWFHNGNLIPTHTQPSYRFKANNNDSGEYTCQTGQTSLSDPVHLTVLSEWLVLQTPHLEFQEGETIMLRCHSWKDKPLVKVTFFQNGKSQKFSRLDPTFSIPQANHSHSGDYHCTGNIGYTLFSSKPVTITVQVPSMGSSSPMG

T8: human FcγRIIb extracellular domain with C-terminal His-tag (human, UniProt P31994 43-217)
T8 construct: Expressed in FreeStyle 293 cells and purified; also called humanFcgRIIb; not shown: C-terminal His-tag
T8 sequence: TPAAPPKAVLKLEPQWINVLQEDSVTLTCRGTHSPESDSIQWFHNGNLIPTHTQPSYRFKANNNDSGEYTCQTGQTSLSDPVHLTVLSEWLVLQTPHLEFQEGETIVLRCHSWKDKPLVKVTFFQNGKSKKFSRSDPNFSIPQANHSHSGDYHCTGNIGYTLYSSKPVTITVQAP


What was measured:
Test in all cases: SPR (Biacore); KD of SG1 divided by KD of the variant for this FcgR;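 note: relative to parent M103205H795-SG1 carrying the SG1 human heavy chain constant region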
[1] = biological target: T1, cynomolgus monkey FcγRIIa1 …
[2] = biological target: T2, cynomolgus monkey FcγRIIa2 …
[3] = biological target: T3, cynomolgus monkey FcγRIIa3 …
[4] = biological target: T4, cynomolgus monkey FcγRIIb extracellular …
[5] = biological target: T5, cynomolgus monkey FcγRIIIaS …
[6] = biological target: T6, human FcγRIIaH extracellular domain …
[7] = biological target: T7, human FcγRIIaR extracellular domain …
[8] = biological target: T8, human FcγRIIb extracellular domain with …
[9] = biological target: T9, human FcγRIIIaV extracellular domain with C-terminal His-tag (human, UniProt P08637 17-208)
T9 construct: Expressed in FreeStyle 293 cells and purified; also called FcgRIIIaV; not shown: C-terminal His-tag
T9 sequence (P08637 17-208 F176V): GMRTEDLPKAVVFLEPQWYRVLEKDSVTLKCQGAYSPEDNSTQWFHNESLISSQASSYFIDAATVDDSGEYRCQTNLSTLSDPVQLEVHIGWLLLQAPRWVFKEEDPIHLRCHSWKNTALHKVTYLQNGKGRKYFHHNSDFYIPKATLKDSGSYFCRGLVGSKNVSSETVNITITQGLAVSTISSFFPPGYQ

| Binder | KD fold (SG1 = 1) [1] [fold] | KD fold (SG1 = 1) [2] [fold] | KD fold (SG1 = 1) [3] [fold] | KD fold (SG1 = 1) [4] [fold] | KD fold (SG1 = 1) [5] [fold] | KD fold (SG1 = 1) [6] [fold] | KD fold (SG1 = 1) [7] [fold] | KD fold (SG1 = 1) [8] [fold] | KD fold (SG1 = 1) [9] [fold] |
| --- | --- | --- | --- | --- | --- | --- | --- | --- | --- |
| M103205H795-MY289 / M103202L889-SK1 (antibody, human IgG1, kappa, Fc variant of M103205H795-SG1, expressed with M103202L889-SK1 as light chain) heavy: QVTLKESGPVLVKPTETLTLTCTVSGIDLSHDDISWVRQAPGKGLEWVGIISYAGSTYYASWAKGRLTISKDTSKNQVVLTMTNMDPVDTATYYCARGVPAYSHGGDLWGQGTLVTVSSASTKGPSVFPLAPSSKSTSGGTAALGCLVKDYFPEPVTVSWNSGALTSGVHTFPAVLQSSGLYSLSSVVTVPSSSLGTQTYICNVNHKPSNTKVDKKVEPKSCDKTHTCPPCPAPELLNGPSVFLFPPKPKDTLMISRTPEVTCVVVDVSHEDPEVKFNWYVDGVEVHNAKTKPREEQYNSTYRVVSVLTVLHQDWLNGKEYKCKVSNKALPKPIEKTISKAKGQPREPQVYTLPPSREEMTKNQVSLTCLVKGFYPSDIAVEWESNGQPENNYKTTPMVLDSDGSFFLYSKLTVDKSRWQQGNVFSCSVMHEALHNHYTQKSLSLSP light: DIVMTQSPATLSLSPGERATLSCTSSQSVYHANWLSWFQQKPGQPPKLLIYWASTLAYGVPSRFSGSGSGTDFTLTISSLQPEDAATYYCAGGYGGGRYAFGQGTKVEIKRTVAAPSVFIFPPSDEQLKSGTASVVCLLNNFYPREAKVQWKVDNALQSGNSQESVTEQDSKDSTYSLSSTLTLSKADYEKHKVYACEVTHQGLSSPVTKSFNRGEC | 2.5 | 3.4 | 2 | 2.4 | 0.07 | 0.3 | 0.8 | 1.6 | 0.11 |
| M103205H795-MY434 / M103202L889-SK1 (antibody, human IgG1, kappa, Fc variant of M103205H795-SG1, expressed with M103202L889-SK1 as light chain) heavy: QVTLKESGPVLVKPTETLTLTCTVSGIDLSHDDISWVRQAPGKGLEWVGIISYAGSTYYASWAKGRLTISKDTSKNQVVLTMTNMDPVDTATYYCARGVPAYSHGGDLWGQGTLVTVSSASTKGPSVFPLAPSSKSTSGGTAALGCLVKDYFPEPVTVSWNSGALTSGVHTFPAVLQSSGLYSLSSVVTVPSSSLGTQTYICNVNHKPSNTKVDKKVEPKSCDKTHTCPPCPAPELWNGPSVFLFPPKPKDTLMISRTPEVTCVVVDVSDEDPEVKFNWYVDGVEVHNAKTKPREEQYNSTYRVVSVLTVLHQDWLNGKEYKCKVSNKALPKPIEKTISKAKGQPREPQVYTLPPSREEMTKNQVSLTCLVKGFYPSDIAVEWESNGQPENNYKTTPPVLDSDGSFFLYSKLTVDKSRWQQGNVFSCSVMHEALHNHYTQKSLSLSP light: DIVMTQSPATLSLSPGERATLSCTSSQSVYHANWLSWFQQKPGQPPKLLIYWASTLAYGVPSRFSGSGSGTDFTLTISSLQPEDAATYYCAGGYGGGRYAFGQGTKVEIKRTVAAPSVFIFPPSDEQLKSGTASVVCLLNNFYPREAKVQWKVDNALQSGNSQESVTEQDSKDSTYSLSSTLTLSKADYEKHKVYACEVTHQGLSSPVTKSFNRGEC | 1.1 | 2.1 | 2.7 | 2.4 | 0.03 | 0.4 | 0.6 | 3.3 | 0.05 |
| M103205H795-MY330 / M103202L889-SK1 (antibody, human IgG1, kappa, Fc variant of M103205H795-SG1, expressed with M103202L889-SK1 as light chain) heavy: QVTLKESGPVLVKPTETLTLTCTVSGIDLSHDDISWVRQAPGKGLEWVGIISYAGSTYYASWAKGRLTISKDTSKNQVVLTMTNMDPVDTATYYCARGVPAYSHGGDLWGQGTLVTVSSASTKGPSVFPLAPSSKSTSGGTAALGCLVKDYFPEPVTVSWNSGALTSGVHTFPAVLQSSGLYSLSSVVTVPSSSLGTQTYICNVNHKPSNTKVDKKVEPKSCDKTHTCPPCPAPELWNGPSVFLFPPKPKDTLMISRTPEVTCVVVDVSEEDPEVKFNWYVDGVEVHNAKTKPREEQYNSTYRVVSVLTVLHQDWLNGKEYKCKVSNKALPKPIEKTISKAKGQPREPQVYTLPPSREEMTKNQVSLTCLVKGFYPSDIAVEWESNGQPENNYKTTPMVLDSDGSFFLYSKLTVDKSRWQQGNVFSCSVMHEALHNHYTQKSLSLSP light: DIVMTQSPATLSLSPGERATLSCTSSQSVYHANWLSWFQQKPGQPPKLLIYWASTLAYGVPSRFSGSGSGTDFTLTISSLQPEDAATYYCAGGYGGGRYAFGQGTKVEIKRTVAAPSVFIFPPSDEQLKSGTASVVCLLNNFYPREAKVQWKVDNALQSGNSQESVTEQDSKDSTYSLSSTLTLSKADYEKHKVYACEVTHQGLSSPVTKSFNRGEC | 1.5 | 2.3 | 3.6 | 3 | 0.05 | 0.7 | 1.2 | 6.9 | 0.07 |
| M103205H795-MY440 / M103202L889-SK1 (antibody, human IgG1, kappa, Fc variant of M103205H795-SG1, expressed with M103202L889-SK1 as light chain) heavy: QVTLKESGPVLVKPTETLTLTCTVSGIDLSHDDISWVRQAPGKGLEWVGIISYAGSTYYASWAKGRLTISKDTSKNQVVLTMTNMDPVDTATYYCARGVPAYSHGGDLWGQGTLVTVSSASTKGPSVFPLAPSSKSTSGGTAALGCLVKDYFPEPVTVSWNSGALTSGVHTFPAVLQSSGLYSLSSVVTVPSSSLGTQTYICNVNHKPSNTKVDKKVEPKSCDKTHTCPPCPAPELWNGPSVFLFPPKPKDTLMISRTPEVTCVVVDVSDEDPEVKFNWYVDGVEVHNAKTKPREELYNSTYRVVSVLTVLHQDWLNGKEYKCKVSNKALPKPIEKTISKAKGQPREPQVYTLPPSREEMTKNQVSLTCLVKGFYPSDIAVEWESNGQPENNYKTTPPVLDSDGSFFLYSKLTVDKSRWQQGNVFSCSVMHEALHNHYTQKSLSLSP light: DIVMTQSPATLSLSPGERATLSCTSSQSVYHANWLSWFQQKPGQPPKLLIYWASTLAYGVPSRFSGSGSGTDFTLTISSLQPEDAATYYCAGGYGGGRYAFGQGTKVEIKRTVAAPSVFIFPPSDEQLKSGTASVVCLLNNFYPREAKVQWKVDNALQSGNSQESVTEQDSKDSTYSLSSTLTLSKADYEKHKVYACEVTHQGLSSPVTKSFNRGEC | 2 | 2.8 | 3.5 | 5.9 | 0.04 | 0.8 | 1 | 5.8 | 0.05 |
